# Experimental data taken from article PMC6770254.
# “And” between values parts separate entries of the source, which are not always exact repeats. Equal entries are not always repeated.
# What was measured:
# Assay in all cases: crystal structure; crystals from 2.2 M DL-malic acid, pH 6.5, with or without 5 mM PPi (hanging drop); data at 100 K; oligomers read from the asymmetric unit and the crystal packing
# [1] = target: Acinetobacter baumannii pyrophosphatase K30R variant (Acinetobacter baumannii) (UniProt V5VHL7)
# [2] = target: Acinetobacter baumannii pyrophosphatase K149R variant (Acinetobacter baumannii) (UniProt V5VHL7)
# [3] = target: Acinetobacter baumannii pyrophosphatase, wild type (Acinetobacter baumannii) (UniProt V5VHL7)
substance,measurement,setting,value
Acinetobacter baumannii pyrophosphatase K30R variant (from UniProt V5VHL7 5-174) (enzyme),stoichiometry N,[1],6 and 3
Acinetobacter baumannii pyrophosphatase K149R variant (from UniProt V5VHL7 5-174) (enzyme),stoichiometry N,[2],6
"Acinetobacter baumannii pyrophosphatase, wild type (from UniProt V5VHL7 5-174) (enzyme)",stoichiometry N,[3],6
